In publication PMC11189300 (2024):
Blank lines part the entries; values can stand above or below the binder they belong to.

What was measured:
ZWINT^M1 [1] = target: T1, ZWINT^M1 (human, UniProt O95229 1-277); assay: BLI; Kd1
ZWINT^M2 [2] = target: T2, ZWINT^M2 (human, UniProt O95229 1-277); assay: BLI; Kd1
ZWINT^M1 [3] = target: T1, ZWINT^M1; assay: BLI; Kd2 (second site)
ZWINT^M2 [4] = target: T2, ZWINT^M2; assay: BLI; Kd2 (second site)
Mis12C^M5 (NSL1 I216A) = Mis12C^M5 (NSL1 I216A) (human, UniProt Q9H081 1-205; Q6P1K2 1-205; Q96IY1 1-281; Q9H410 1-356, I216A); assay: ITC
Sequence of Mis12C^M5 (NSL1 I216A) (Q9H081 whole entry, chain 1 of 4): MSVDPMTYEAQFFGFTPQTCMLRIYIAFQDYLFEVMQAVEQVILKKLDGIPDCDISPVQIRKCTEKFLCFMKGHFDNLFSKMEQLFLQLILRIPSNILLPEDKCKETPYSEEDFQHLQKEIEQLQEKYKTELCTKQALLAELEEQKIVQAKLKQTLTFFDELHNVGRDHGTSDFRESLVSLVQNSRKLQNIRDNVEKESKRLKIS
Sequence of Mis12C^M5 (NSL1 I216A) (Q6P1K2 whole entry, chain 2 of 4): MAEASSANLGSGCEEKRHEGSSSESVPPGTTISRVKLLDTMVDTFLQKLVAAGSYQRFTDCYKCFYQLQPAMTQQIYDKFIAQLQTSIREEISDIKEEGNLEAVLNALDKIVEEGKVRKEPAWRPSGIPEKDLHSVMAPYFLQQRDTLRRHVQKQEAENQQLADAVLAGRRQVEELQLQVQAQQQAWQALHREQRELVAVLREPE
Sequence of Mis12C^M5 (NSL1 I216A) (Q96IY1 whole entry I216A, chain 3 of 4): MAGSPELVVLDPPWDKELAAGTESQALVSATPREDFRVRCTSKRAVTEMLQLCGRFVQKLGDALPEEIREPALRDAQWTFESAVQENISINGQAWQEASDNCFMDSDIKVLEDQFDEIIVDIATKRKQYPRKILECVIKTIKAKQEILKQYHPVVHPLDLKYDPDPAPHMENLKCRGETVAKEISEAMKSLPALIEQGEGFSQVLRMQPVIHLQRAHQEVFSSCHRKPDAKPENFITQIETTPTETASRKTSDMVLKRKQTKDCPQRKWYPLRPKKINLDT
Sequence of Mis12C^M5 (NSL1 I216A) (Q9H410 whole entry, chain 4 of 4): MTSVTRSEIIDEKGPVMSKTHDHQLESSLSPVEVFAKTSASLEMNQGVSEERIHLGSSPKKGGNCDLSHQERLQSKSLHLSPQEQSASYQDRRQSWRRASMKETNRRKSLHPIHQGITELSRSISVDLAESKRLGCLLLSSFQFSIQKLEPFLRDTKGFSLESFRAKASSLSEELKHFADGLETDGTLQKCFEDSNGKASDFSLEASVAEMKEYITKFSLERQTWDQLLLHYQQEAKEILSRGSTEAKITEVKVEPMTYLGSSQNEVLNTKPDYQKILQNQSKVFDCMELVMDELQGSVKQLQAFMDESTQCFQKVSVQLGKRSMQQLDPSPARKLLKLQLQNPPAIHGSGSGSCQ

Mis12C^M3 = Mis12C^M3 (human, UniProt Q9H081 1-205; Q6P1K2 1-205; Q96IY1 1-281; Q9H410 1-356); assay: ITC
Sequence of Mis12C^M3 (Q9H081 whole entry, chain 1 of 4): as the sequence (Q9H081 whole entry, chain 1 of 4) above
Sequence of Mis12C^M3 (Q6P1K2 whole entry, chain 2 of 4): as the sequence (Q6P1K2 whole entry, chain 2 of 4) above
Sequence of Mis12C^M3 (Q96IY1 whole entry, chain 3 of 4): as the sequence (Q96IY1 whole entry I216A, chain 3 of 4) above, with A216I counted along it
Sequence of Mis12C^M3 (Q9H410 whole entry, chain 4 of 4): as the sequence (Q9H410 whole entry, chain 4 of 4) above

Mis12C^M4 = Mis12C^M4 (human, UniProt Q9H081 1-205; Q6P1K2 1-205; Q96IY1 1-281; Q9H410 1-356); assay: ITC
Sequence of Mis12C^M4 (Q9H081 whole entry, chain 1 of 4): as the sequence (Q9H081 whole entry, chain 1 of 4) above
Sequence of Mis12C^M4 (Q6P1K2 whole entry, chain 2 of 4): as the sequence (Q6P1K2 whole entry, chain 2 of 4) above
Sequence of Mis12C^M4 (Q96IY1 whole entry, chain 3 of 4): as the sequence (Q96IY1 whole entry I216A, chain 3 of 4) above, with A216I counted along it
Sequence of Mis12C^M4 (Q9H410 whole entry, chain 4 of 4): as the sequence (Q9H410 whole entry, chain 4 of 4) above

Kd (ZWINT^M1 [1]): 235 nM
Kd (ZWINT^M2 [2]): 1170 nM
Kd (ZWINT^M1 [3]): 25.1 nM
Kd (ZWINT^M2 [4]): 250 nM
B1: KNL1 (construct of the BLI titrations with ZWINT) (domain or fragment)
chain: GKLVQSAQNEREKLQIKIDEMDKILKKIDNCLTEMETETKNLEDEEKNNPVEEWDSEMRAAEKELEQLKTEEEELQRNLLELEVQKEQTLAQIDFMQKQRNRTEELLDQLSLSEWDVVEWSDDQAVFTFVYDTIQLTITFEESVVGFPFLDKRYRKIVDVNFQSLLDEDQAPPSSLLVHKLIFQYVEEKESWKKTCTTQHQLPKMLEEFSLVVHHCRLLGEEIEYLKRWGPNYNLMNIDINNNELRLLFSSSAAFAKFEITLFLSAYYPSVPLPSTIQNHVGNTSQDDIATILSKVPLENNYLKNVVKQIYQDLFQDCHFYH

Kd (Mis12C^M5 (NSL1 I216A)): 774 nM
Kd (Mis12C^M3): 1170 nM
Kd (Mis12C^M4): 451 nM
B2: full-length SPC24/SPC25 (complex)
chain 1: MAAFRDIEEVSQGLLSLLGANRAEAQQRRLLGRHEQVVERLLETQDGAEKQLREILTMEKEVAQSLLNAKEQVHQGGVELQQLEAGLQEAGEEDTRLKASLLQLTRELEELKEIEADLERQEKEVDEDTTVTIPSAVYVAQLYHQVSKIEWDYECEPGMVKGIHHGPSVAQPIHLDSTQLSRKFISDYLWSLVDTEW
chain 2: MVEDELALFDKSINEFWNKFKSTDTSCQMAGLRDTYKDSIKAFAEKLSVKLKEEERMVEMFLEYQNQISRQNKLIQEKKDNLLKLIAEVKGKKQELEVLTANIQDLKEEYSRKKETISTANKANAERLKRLQKSADLYKDRLGLEIRKIYGEKLQFIFTNIDPKNPESPFMFSLHLNEARDYEVSDSAPHLEGLAEFQENVRKTNNFSAFLANVRKAFTATVYN
